According to publication PMC5031806:
pKd: −log10 of the molar value.

Biological target: meMICU1^97-476 (human MICU1 residues 97-476, methylated in vitro by recombinant PRMT1) (human) (UniProt Q9BPX6)
Assay: ITC; IML2^UCP2 (500 μM, syringe) titrated into MICU1 (40 μM, cell); VP-ITC, 25 °C; 20 mM Tris pH 7.0, 500 mM NaCl, 50 mM Arg, 2 mM BME; single site-binding model

Chain of UniProt Q9BPX6 (Q9BPX6 97-476): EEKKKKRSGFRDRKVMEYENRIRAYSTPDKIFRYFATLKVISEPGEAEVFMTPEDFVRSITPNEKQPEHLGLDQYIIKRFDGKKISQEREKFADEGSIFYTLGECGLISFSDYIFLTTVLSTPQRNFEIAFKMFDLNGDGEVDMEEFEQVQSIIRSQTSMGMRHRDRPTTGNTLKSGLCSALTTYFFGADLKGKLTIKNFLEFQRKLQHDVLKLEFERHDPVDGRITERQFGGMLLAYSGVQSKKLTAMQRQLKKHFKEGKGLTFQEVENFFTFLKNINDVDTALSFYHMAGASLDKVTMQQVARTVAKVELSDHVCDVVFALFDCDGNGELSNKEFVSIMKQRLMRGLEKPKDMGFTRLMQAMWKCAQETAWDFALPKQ

## IML2^UCP2 (chemically synthetized intermembrane loop 2 of UCP2) (from UniProt P55851 147-171) (peptide)
  pKd: 4.61
